Assay results: patent publication US8263074B2, “Fibroblast growth factor receptor-1 inhibitors and methods of treatment thereof” (ImClone LLC, priority 2003, dated 2012)

Experiments:
[1] = Energy expenditure and body composition in C57 black mice (incl. paired-feeding); assay type: in vivo
Description: To elucidate the mechanism of the weight-loss induced by FGFR antagonistic antibodies, the effect of FR1-H7 on energy expenditure and body composition of mice was studied. […] A paired-feeding experiment was also conducted which food consumption of control antibody treated animals was restrained to exact that of FR1-H7 treated animals (FIG. 27). […] Moreover, body composition (Day 1 and 5) and energy consumption determined for the two groups were mostly indistinguishable.
This study consisted of two stages. In the first stage, female C57 black mice (Charles River Laboratories, Wilmington, Mass.) were randomized into two groups (n=16) and individually housed in a metabolic cage. Both groups of Mice were given hi-carbohydrate content chow and water ad libitum. […] Body composition was determined using NMR on Day 1 and Day 5. Body weight and food consumption were determined daily. Energy expenditure, ambulatory activities, and oxygen consumption and were monitored continuously. RER were calculated based on energy expenditure and oxygen consumption.
In the second stage, both groups of Mice were given water ad libitum, but only 2 g of hi-carbohydrate content chow each animal per day. The amount of food given was determined in the first stage experiment to be the averaged daily food assumption of those animals one day after being treated with FR1-H7 (10 mg/kg body weight, intraperitonaeally). […]

FGFR-1(IIIc) = FGFR-1(IIIc) (Homo sapiens, UniProt P11362); experiment: Cell-based blocking assay (125I-FGF-2 binding to FGFR-1(IIIc) expressing L6 cells); parameters: expressed in transfected cells; host or cells: L6 (ATCC), pBABE retroviral vector; conditions: at 200 nM antibody
Chain of FGFR-1(IIIc) (P11362 22-822): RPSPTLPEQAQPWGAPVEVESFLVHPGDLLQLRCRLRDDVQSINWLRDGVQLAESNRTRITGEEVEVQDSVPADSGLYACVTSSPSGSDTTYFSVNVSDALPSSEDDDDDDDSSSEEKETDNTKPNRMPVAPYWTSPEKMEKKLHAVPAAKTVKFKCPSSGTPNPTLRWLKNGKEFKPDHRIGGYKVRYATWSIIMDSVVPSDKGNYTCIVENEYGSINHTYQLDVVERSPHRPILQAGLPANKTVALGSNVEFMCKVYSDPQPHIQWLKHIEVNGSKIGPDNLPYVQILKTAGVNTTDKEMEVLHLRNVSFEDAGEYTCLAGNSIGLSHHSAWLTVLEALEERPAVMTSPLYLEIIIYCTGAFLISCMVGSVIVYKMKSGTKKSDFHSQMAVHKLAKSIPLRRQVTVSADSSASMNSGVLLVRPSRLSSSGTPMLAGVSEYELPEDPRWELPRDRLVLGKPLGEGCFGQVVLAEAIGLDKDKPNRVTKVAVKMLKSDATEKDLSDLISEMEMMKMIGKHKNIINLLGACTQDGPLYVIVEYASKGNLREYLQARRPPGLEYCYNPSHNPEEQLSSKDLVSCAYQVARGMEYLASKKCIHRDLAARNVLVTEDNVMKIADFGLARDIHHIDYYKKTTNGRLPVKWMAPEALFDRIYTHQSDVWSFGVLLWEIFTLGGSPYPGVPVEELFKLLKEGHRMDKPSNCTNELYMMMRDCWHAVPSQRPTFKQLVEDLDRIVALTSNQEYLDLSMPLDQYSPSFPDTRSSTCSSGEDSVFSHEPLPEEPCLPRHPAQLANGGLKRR
Description: An FGFR-1(IIIc) expressing cell line was constructed by retro-viral transfecting L6 (ATCC, Manassas, Va.) using a pBABE vector that has a puromycin resistant gene (Invitrogen). Transfected cells were cultured in 10% FBS, DMEM (Invitrogen) in 6-well tissue culture plates until reaching confluency, Before the blocking experiment, cells were serum starved for 8-24 hrs at 37° C. in DMEM medium that contains 0.1% FBS and 5 μg/ml heparin. Before the addition of any reagents, plates were put on ice for 1 hr to minimize receptor internalization. For binding experiment, iodinated recombinant FGF-2 was added at various concentrations to the wells of the plates. For blocking experiments, serially diluted FR1-H7 antibody was added and incubated with the cells on ice for 1 hr before iodinated recombinant FGF-2 was added to each well to a final concentration of 15 ng/ml. Binding was for 1 hr at 0-4° C., after which time the solutions were aspirated and the plates were washed 5 times with ice-cold PBS. Cells were lyzed with 0.5 ml ice-cold cell lysis buffer for 30 minutes. Radioactivity of the cell lysates was detected using a Wizard 1470 automatic gamma counter (Turku, Finland). Non-specific interaction was determined in a binding experiment in which iodinated FGF-2 was incubated with the cells in presence of 200 fold excess of cold ligand.

[2] = Body weight, food intake and adipose tissue in db/db mice; assay type: in vivo; conditions: 4 mg/kg s.c.
Description: The db/db 7 week old mice were injected subcutaneously with 4 mg/kg antibody on a Monday, Wednesday, and Friday schedule with body weights being measured before each injection and on day 7. Food intake was monitored as well on days 1, 2, 3, 4, and 7. The db/db animals were sacrificed on day 7 and their intrascapular brown fat, epididymal white adipose tissue, and inguinal subcutaneous white adipose tissue were sampled and weighed.

FGFR-2b = target: T1, FGFR-2b (Homo sapiens, UniProt P21802); experiment: BiaCore binding kinetics; conditions: BiaCore kinetic analysis
T1 construct: purchased R&D Systems
T1 sequence (P21802 22-822 isoform P21802-3 limits assumed): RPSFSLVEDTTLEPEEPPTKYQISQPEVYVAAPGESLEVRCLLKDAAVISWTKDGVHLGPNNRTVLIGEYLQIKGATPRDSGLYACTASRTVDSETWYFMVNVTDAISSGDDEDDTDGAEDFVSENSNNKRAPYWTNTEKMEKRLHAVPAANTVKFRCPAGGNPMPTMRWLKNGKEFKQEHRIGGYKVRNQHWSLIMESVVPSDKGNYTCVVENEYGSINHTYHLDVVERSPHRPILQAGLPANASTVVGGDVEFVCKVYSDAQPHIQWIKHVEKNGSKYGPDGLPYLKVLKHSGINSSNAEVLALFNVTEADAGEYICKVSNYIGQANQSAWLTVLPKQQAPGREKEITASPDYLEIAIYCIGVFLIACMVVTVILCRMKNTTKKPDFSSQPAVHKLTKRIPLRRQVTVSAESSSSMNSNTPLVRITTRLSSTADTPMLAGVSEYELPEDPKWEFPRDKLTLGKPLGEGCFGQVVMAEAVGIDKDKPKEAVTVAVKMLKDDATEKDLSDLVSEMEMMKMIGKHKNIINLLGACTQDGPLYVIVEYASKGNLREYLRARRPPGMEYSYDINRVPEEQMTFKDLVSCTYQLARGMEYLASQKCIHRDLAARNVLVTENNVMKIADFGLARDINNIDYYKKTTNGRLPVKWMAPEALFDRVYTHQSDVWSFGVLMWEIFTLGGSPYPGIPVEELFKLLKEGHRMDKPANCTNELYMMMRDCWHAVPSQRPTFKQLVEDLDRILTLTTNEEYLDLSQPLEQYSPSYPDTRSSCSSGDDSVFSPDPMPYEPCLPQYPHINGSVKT

[3] = Repeated-dose study in female athymic nude mice: body weight, food intake, rearing, blood glucose; assay type: in vivo; conditions: day 64
FGFR-1 = target: T2, FGFR-1 (Homo sapiens, UniProt P11362); experiment: Phosphorylation assay in FGFR-1 expressing L6 cells (western blot); assay type: cell-based; conditions: anti-phospho-tyrosine western blot
T2 construct: expressed in transfected cells; host or cells: L6 (ATCC), pBABE retroviral vector
T2 sequence (P11362 22-822): as the sequence (P11362 22-822) above
Description: FGFR-1 expressing L6 cells were cultured in 10% FBS, DMEM, in a 24-well tissue culture plate till confluency. Cells were Serum starved in 5 μg/ml heparin, 0.1% FBS, DMEM, for 8-24 hrs. Either FR1-H7 or FR1-A1 was added to the media and allowed to bind with the cell surface receptors at 37° C. for 1 hr. Cells were then stimulated with 20 ng/ml FGFs at 37° C. for 10 min before they were lyzed using ice-cold lysis buffer for 30 min. Cell lysate was subjected to SDS-PAGE followed by western blot. Membranes were probed with anti-phospho-tyrosine antibody (Cell Signaling Technology, Inc., Beverly, Mass.) for detection of phosphorylated FGFR-1 receptors according to supplier's instructions.
The phosphorylation assay for small molecules is essentially the same as the phosphorylation assay described in Examples 7 and 15 and Phosphorylation Assay, except that small molecule compounds was used instead of FGFR-1 antibodies in all occasions. […] Equal amount of cell lysates were applied to each sample lane. Receptor auto-phosphorylation was probed using anti-phospho-tyrosine antibody as described in the original patent.

FGFR-3c = target: T3, FGFR-3c (Homo sapiens, UniProt P22607); experiment: BiaCore binding kinetics; conditions: BiaCore kinetic analysis
T3 construct: purchased R&D Systems
T3 sequence (P22607 23-806): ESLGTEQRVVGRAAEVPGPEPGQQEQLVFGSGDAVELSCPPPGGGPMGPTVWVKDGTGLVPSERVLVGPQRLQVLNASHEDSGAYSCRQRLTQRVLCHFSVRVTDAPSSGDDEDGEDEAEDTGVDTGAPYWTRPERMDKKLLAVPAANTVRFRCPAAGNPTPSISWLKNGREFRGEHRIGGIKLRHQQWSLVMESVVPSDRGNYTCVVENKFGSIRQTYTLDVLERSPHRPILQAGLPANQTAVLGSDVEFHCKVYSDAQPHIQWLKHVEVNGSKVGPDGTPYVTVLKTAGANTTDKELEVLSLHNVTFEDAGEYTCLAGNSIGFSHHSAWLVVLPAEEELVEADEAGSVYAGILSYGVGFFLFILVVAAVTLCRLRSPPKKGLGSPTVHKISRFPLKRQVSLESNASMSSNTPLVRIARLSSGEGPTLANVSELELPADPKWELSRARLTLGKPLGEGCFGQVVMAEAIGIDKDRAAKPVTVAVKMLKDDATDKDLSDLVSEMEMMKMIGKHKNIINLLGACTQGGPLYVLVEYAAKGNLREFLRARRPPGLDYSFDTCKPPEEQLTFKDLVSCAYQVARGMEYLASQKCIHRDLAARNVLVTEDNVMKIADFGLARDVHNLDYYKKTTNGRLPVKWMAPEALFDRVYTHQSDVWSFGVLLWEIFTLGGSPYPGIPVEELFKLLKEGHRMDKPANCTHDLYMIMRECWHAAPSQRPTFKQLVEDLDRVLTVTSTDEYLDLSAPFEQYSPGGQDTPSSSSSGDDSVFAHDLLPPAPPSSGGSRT

FGFR-2c = target: T4, FGFR-2c (Homo sapiens, UniProt P21802); experiment: BiaCore binding kinetics; conditions: BiaCore kinetic analysis
T4 construct: purchased R&D Systems
T4 sequence (P21802 22-821): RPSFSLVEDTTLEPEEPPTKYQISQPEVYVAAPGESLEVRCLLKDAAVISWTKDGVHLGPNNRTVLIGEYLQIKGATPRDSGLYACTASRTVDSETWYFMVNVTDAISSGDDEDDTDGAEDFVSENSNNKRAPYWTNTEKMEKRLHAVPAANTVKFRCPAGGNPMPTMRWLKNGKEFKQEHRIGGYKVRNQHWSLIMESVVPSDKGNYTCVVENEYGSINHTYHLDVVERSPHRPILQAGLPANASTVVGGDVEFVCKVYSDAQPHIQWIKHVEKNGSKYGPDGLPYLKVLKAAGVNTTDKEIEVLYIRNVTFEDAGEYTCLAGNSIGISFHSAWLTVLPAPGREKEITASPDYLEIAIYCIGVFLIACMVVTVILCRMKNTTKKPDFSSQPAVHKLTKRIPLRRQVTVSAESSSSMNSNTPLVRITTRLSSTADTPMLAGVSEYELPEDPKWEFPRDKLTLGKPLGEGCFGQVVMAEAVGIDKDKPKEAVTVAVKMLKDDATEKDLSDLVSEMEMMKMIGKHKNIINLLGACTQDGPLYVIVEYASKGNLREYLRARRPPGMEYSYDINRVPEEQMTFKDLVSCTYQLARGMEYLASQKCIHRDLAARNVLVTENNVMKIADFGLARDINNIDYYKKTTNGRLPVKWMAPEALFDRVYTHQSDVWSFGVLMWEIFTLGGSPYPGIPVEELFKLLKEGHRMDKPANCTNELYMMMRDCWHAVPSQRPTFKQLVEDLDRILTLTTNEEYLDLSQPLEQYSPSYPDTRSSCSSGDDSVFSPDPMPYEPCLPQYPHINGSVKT

human adipocytes = experiment: Adipocyte proliferation assay (3H-thymidine); assay type: cell-based; conditions: 15 ng/ml FGF-2, 60 hrs
Description: Two-week-old (after induced differentiation) grade 2 human adipocytes were obtained from Zen-Bio Inc. (Research Triangle, N.C.), and were maintained in the shipping media in a 96-well tissue culture plate. To evaluate the effects of FGF-2 on the proliferation of adipocytes, recombinant FGF-2 (R&D systems) was serially diluted and added to the wells of the plate. The cells were allowed to grow in the incubator for 60 hrs, before the level of ^3H-thymidine incorporation was determined. To evaluate the effects of FR1-H7 on adipocytes proliferation, the antibody was serially diluted and added to the cells before addition of recombinant FGF-2 to a final concentration of 15 ng/ml. ^3H-thymidine incorporation was determined after 60 hrs of incubation.

[4] = Body weight in C57 black mice; assay type: in vivo; conditions: after 4 treatments
Description: The antibodies weight-reducing effects on other strains of mice, C57 black mice and db/db mice were tested (The Jackson Laboratory, Bar Harbor, Me.). The C57 mice were injected with 0.8 mg/kg, 4 mg/kg, and 40 mg/kg antibody and saline on a Monday, Wednesday, Friday, and following Monday rotation schedule with body weights being measured before each injection and on day 9.

B1: FR1-H7: human monoclonal antibody from phage Fab library, specific for FGFR-1(IIIb) and/or FGFR-1(IIIc), and/or FGFR-4(IIIc); VH/VL SEQ ID NOS:7, 8 (antibody, listed as Homo sapiens)
VH: MAEVQLVQSGAEVKKPGASVKVSCKVSGYTFTDYYMHWVQQAPGKGLEWMGLVDPEDGETIYAEKFQGRVTITADTSTDTAYMELSSLRSEDTAVYYCARDDYMDVWGKGTLVTVSSASTKGP
VL: LETTLTQSPDTLSLSPGEGATLSCRASQSVSGSALAWYQQKPGQAPRLLIYDASSRATGVPDRFSGSGSGADFSLTISRLEPEDFAVYSCQQYGSSPLTFGPGTKVDVKRTVAAPSVFIFPPSDEQLKSGTASVVCLLNNFYPREAKVQWKVD
body weight, food intake, muscle and fat mass, energy expenditure and Respiratory Exchange Ratio (RER) compared to the controls ([1]; 10 mg/kg i.p. Day 2 and Day 4, food ad libitum): decreases | weight loss versus pair-fed control antibody treated animals ([1]; 10 mg/kg i.p., paired-feeding, 5-day period): identical weight-loss trajectories | blocking of specific 125I-FGF-2 binding to the cells (FGFR-1(IIIc)): near completion | food intakes ([2]; 7-day period): gradual reduction | weight reduction of the total body weight ([2]; Day 7): approximately 10% | weight of intrascapular brown fat tissue ([2]; day 7): significant reduction | weights of epididymal white adipose tissue and inguinal subcutaneous white adipose tissue ([2]; day 7): changed little | Kd (FGFR-2b): > 1000 nM | non-fasted blood glucose after weight recovery [3]: restored to normal range | inhibition of ligand (FGF) mediated receptor phosphorylation (FGFR-1; antibody): significantly inhibits | receptor activation by the antibody by itself (FGFR-1; no ligand): does not activate the receptor | Kd (FGFR-3c): > 1000 nM | Kd (FGFR-2c): > 1000 nM | FGF-2-stimulated proliferation of adipocytes (human adipocytes): inhibited the FGF-2-stimulated proliferation of adipocytes in a dose dependant manner | weight reduction compared to the starting weights ([4]; 0.8 mg/kg): approximately 5% | weight reduction compared to the starting weights ([4]; 4 mg/kg): ~16% | weight reduction compared to the starting weights ([4]; 40 mg/kg): ~16%
